Results on two molecules are retold here after patent US20160369011A1.

This assay deals with T1, human TEM1 (endosialin/CD248) (human) (UniProt Q9HCU0).
T1 sequence (chain, biotinylated in the SPR assay of Table 6 (sites not stated)): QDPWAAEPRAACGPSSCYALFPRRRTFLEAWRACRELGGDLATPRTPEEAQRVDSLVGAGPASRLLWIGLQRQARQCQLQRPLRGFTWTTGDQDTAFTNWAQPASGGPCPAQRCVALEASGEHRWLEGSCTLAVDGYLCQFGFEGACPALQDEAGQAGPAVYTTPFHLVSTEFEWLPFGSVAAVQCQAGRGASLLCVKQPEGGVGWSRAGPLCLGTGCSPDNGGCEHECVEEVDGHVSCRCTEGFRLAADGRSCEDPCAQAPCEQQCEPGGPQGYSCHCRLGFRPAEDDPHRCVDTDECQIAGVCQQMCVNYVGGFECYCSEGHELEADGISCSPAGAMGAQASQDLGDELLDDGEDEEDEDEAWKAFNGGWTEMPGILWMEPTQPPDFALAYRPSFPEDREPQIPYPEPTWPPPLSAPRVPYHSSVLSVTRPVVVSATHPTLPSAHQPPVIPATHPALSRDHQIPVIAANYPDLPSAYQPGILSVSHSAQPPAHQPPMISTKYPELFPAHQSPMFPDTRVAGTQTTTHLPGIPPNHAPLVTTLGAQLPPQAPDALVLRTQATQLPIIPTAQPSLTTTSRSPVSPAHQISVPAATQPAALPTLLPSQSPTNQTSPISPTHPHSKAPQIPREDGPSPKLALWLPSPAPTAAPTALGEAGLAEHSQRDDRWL
The experiment in a line: SPR (BIAcore), biotin-hTEM1 captured on CAP chip, antibody 0-50 nM as analyte.

B1: 1-55-2 (rabbit anti-hTEM1 mAb) (antibody, V domains shown)
VH: QSVEESGGDLVKPEGSLTLTCTASGFSFSSSYWGCWVRQAPGKGPEWIACIYGGSSGTTYYPNWAKGRFSISKTSSTTVTLQMASLTAADTATYFCARVTNGGDWDFKLWGPGTLVTISS
VL: ELVMTQTPASVEVAVGGTVTIKCQASQSINTYLAWYQQKPGQPPKLLIYRASTLASGVPSRFKGSGSGTEFTLTISDLECADAATYYCQQSVRVIDVDNTFGGGTEVVVK
For orientation: Kd means the free concentration of one partner at which half of the binding sites on the other are occupied at equilibrium, for simple one-to-one binding. Lower therefore signals tighter binding. The term koff denotes the rate constant with which the complex falls apart. Low readings indicate a long-lived complex, high ones a short-lived complex. The kon is a measure of how fast the partners come together. Turning to B1, the Kd worked out at 0.015 nM, the koff turned out to be 5.8e-05 s⁻¹ and the kon is 3.7e+06 M⁻¹ s⁻¹.

B2: xi1-55-2 (rabbit/human chimerized 1-55-2 mAb) (antibody, human IgG1, kappa, V domains shown)
VH: B1 VH
VL: ELVMTQTPASVEVAVGGTVTIKCQASQSINTYLAWYQQKPGQPPKLLIYRASTLASGVPSRFKGSGSGTEFTLTISDLECADAATYYCQQSVRVIDVDNTFGGGTEVVVKR
As for B2, the dissociation constant Kd turned out to be 0.046 nM, the koff was 7.1e-05 s⁻¹ and the kon came to 1.5e+06 M⁻¹ s⁻¹.
